What all share (conditions): amino acid activation with ATP; no EF-P stated
Substrate in the series “purified protein”: NCCCC[C@H](N)C(=O)O
The experiment in a line: purified protein.

Substrate in series [1]: NCCC[C@@H](N)CC(=O)O
The experiment in a line: steady-state kinetics of amino acid activation. The class given is biochemical, Escherichia coli.

Substrate in series [2]: NCCC[C@H](N)CC(=O)O
Description: steady-state kinetics of amino acid activation. The class given is biochemical, Escherichia coli.

Broadly, the Km is the concentration of substrate that gives half-maximal velocity. One may read the kcat as the number of substrate molecules converted per active site and unit of time at saturation. Broadly, the kcat/Km is the turnover number divided by the Michaelis constant.

B1: PoxA (Escherichia coli K-12) (protein)
chain: MSETASWQPSASIPNLLKRAAIMAEIRRFFADRGVLEVETPCMSQATVTDIHLVPFETRFVGPGHSQGMNLWLMTSPEYHMKRLLVAGCGPVFQLCRSFRNEEMGRYHNPEFTMLEWYRPHYDMYRLMNEVDDLLQQVLDCPAAESLSYQQAFLRYLEIDPLSADKTQLREVAAKLDLSNVADTEEDRDTLLQLLFTFGVEPNIGKEKPTFVYHFPASQASLAQISTEDHRVAERFEVYYKGIELANGFHELTDAREQQQRFEQDNRKRAARGLPQHPIDQNLIEALKVGMPDCSGVALGVDRLVMLALGAETLAEVIAFSVDRA
In the case of B1, in “purified protein”, the Km was determined as 8600 ± 1200 µM, the kcat stood at 0.25 s⁻¹ and the kcat/Km was found to be 28.3 M⁻¹ s⁻¹. In series [1], the Michaelis-Menten constant (Km) was determined as 213 ± 31 µM, the turnover number (kcat) came out at 0.6 ± 0.055 s⁻¹ and the kcat/Km stood at 2820 M⁻¹ s⁻¹. Also, in series [2], the Km is 6950 ± 1894 µM, the kcat came to 0.0467 s⁻¹ and the specificity constant (kcat/Km) stood at 6.67 M⁻¹ s⁻¹.

B2: PoxA (Escherichia coli K-12; A298G) (protein)
chain: MSETASWQPSASIPNLLKRAAIMAEIRRFFADRGVLEVETPCMSQATVTDIHLVPFETRFVGPGHSQGMNLWLMTSPEYHMKRLLVAGCGPVFQLCRSFRNEEMGRYHNPEFTMLEWYRPHYDMYRLMNEVDDLLQQVLDCPAAESLSYQQAFLRYLEIDPLSADKTQLREVAAKLDLSNVADTEEDRDTLLQLLFTFGVEPNIGKEKPTFVYHFPASQASLAQISTEDHRVAERFEVYYKGIELANGFHELTDAREQQQRFEQDNRKRAARGLPQHPIDQNLIEALKVGMPDCSGVGLGVDRLVMLALGAETLAEVIAFSVDRA
As to B2, in “purified protein”, the Km was 344 ± 44 µM, the turnover number (kcat) is 0.0633 s⁻¹ and the kcat/Km was 185 M⁻¹ s⁻¹. Moreover, in series [1], the Km is given as 414 ± 63 µM, the kcat was 0.283 ± 0.00833 s⁻¹ and the kcat/Km was determined as 683 M⁻¹ s⁻¹.

Source of the values: PMC3177975.
